Laboratory results: patent publication US20260242735A1 (UNIVERSIT T BASEL, published 2026)

Columns and labels:
Experiment in all cases: flow cytometry, transfected cells
human CD33 R122T = human CD33 R122T (human, UniProt P20138 18-364)
human CD33 R122E = human CD33 R122E (human, UniProt P20138 18-364)
human CD33 Y49D = human CD33 Y49D (human, UniProt P20138 18-364)
human CD33 I47N = human CD33 I47N (human, UniProt P20138 18-364)
human CD33 D51K = human CD33 D51K (human, UniProt P20138 18-364)
human CD33 F44P = human CD33 F44P (human, UniProt P20138 18-364)
Chain of human CD33 F44P (P20138 18-364 F44P limits assumed): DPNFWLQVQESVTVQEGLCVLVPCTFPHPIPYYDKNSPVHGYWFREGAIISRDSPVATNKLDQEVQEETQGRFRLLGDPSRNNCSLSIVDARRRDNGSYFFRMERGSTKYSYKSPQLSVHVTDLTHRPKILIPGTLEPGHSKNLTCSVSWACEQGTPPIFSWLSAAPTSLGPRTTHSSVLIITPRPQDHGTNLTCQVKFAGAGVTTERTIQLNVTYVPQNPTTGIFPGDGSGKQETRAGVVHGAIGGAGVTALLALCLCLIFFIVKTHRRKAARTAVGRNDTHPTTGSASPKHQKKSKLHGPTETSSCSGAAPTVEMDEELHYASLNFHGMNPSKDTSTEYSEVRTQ

human CD33 I47R = human CD33 I47R (human, UniProt P20138 18-364)
Chain of human CD33 I47R (P20138 18-364 I47R limits assumed): as the sequence (P20138 18-364 F44P limits assumed) above, with P27F, I30R counted along it

human CD33 I47E = human CD33 I47E (human, UniProt P20138 18-364)
Chain of human CD33 I47E (P20138 18-364 I47E limits assumed): as the sequence (P20138 18-364 F44P limits assumed) above, with P27F, I30E counted along it

human CD33 F44S = human CD33 F44S (human, UniProt P20138 18-364)
Chain of human CD33 F44S (P20138 18-364 F44S limits assumed): as the sequence (P20138 18-364 F44P limits assumed) above, with P27S counted along it

human CD33 I47L = human CD33 I47L (human, UniProt P20138 18-364)
Chain of human CD33 I47L (P20138 18-364 I47L limits assumed): as the sequence (P20138 18-364 F44P limits assumed) above, with P27F, I30L counted along it

human CD33 Y49G = human CD33 Y49G (human, UniProt P20138 18-364)
Chain of human CD33 Y49G (P20138 18-364 Y49G limits assumed): as the sequence (P20138 18-364 F44P limits assumed) above, with P27F, Y32G counted along it

human CD33 Y49P = human CD33 Y49P (human, UniProt P20138 18-364)
Chain of human CD33 Y49P (P20138 18-364 Y49P limits assumed): as the sequence (P20138 18-364 F44P limits assumed) above, with P27F, Y32P counted along it

human CD33 I47Q = human CD33 I47Q (human, UniProt P20138 18-364)
Chain of human CD33 I47Q (P20138 18-364 I47Q limits assumed): as the sequence (P20138 18-364 F44P limits assumed) above, with P27F, I30Q counted along it

human CD33 F44Q = human CD33 F44Q (human, UniProt P20138 18-364)
Chain of human CD33 F44Q (P20138 18-364 F44Q limits assumed): as the sequence (P20138 18-364 F44P limits assumed) above, with P27Q counted along it

human CD33 F44V = human CD33 F44V (human, UniProt P20138 18-364)
Chain of human CD33 F44V (P20138 18-364 F44V limits assumed): as the sequence (P20138 18-364 F44P limits assumed) above, with P27V counted along it

human CD33 F44T = human CD33 F44T (human, UniProt P20138 18-364)
Chain of human CD33 F44T (P20138 18-364 F44T limits assumed): as the sequence (P20138 18-364 F44P limits assumed) above, with P27T counted along it

human CD33 R122F = human CD33 R122F (human, UniProt P20138 18-364)
Chain of human CD33 R122F (P20138 18-364 R122F limits assumed): as the sequence (P20138 18-364 F44P limits assumed) above, with P27F, R105F counted along it

human CD33 I47Y = human CD33 I47Y (human, UniProt P20138 18-364)
Chain of human CD33 I47Y (P20138 18-364 I47Y limits assumed): as the sequence (P20138 18-364 F44P limits assumed) above, with P27F, I30Y counted along it

human CD33 F44H = human CD33 F44H (human, UniProt P20138 18-364)
Chain of human CD33 F44H (P20138 18-364 F44H limits assumed): as the sequence (P20138 18-364 F44P limits assumed) above, with P27H counted along it

human CD33 Y49C = human CD33 Y49C (human, UniProt P20138 18-364)
Chain of human CD33 Y49C (P20138 18-364 Y49C limits assumed): as the sequence (P20138 18-364 F44P limits assumed) above, with P27F, Y32C counted along it

human CD33 F44D = human CD33 F44D (human, UniProt P20138 18-364)
Chain of human CD33 F44D (P20138 18-364 F44D limits assumed): as the sequence (P20138 18-364 F44P limits assumed) above, with P27D counted along it

human CD33 F44I = human CD33 F44I (human, UniProt P20138 18-364)
Chain of human CD33 F44I (P20138 18-364 F44I limits assumed): as the sequence (P20138 18-364 F44P limits assumed) above, with P27I counted along it

human CD33 I47W = human CD33 I47W (human, UniProt P20138 18-364)
Chain of human CD33 I47W (P20138 18-364 I47W limits assumed): as the sequence (P20138 18-364 F44P limits assumed) above, with P27F, I30W counted along it

human CD33 R122I = human CD33 R122I (human, UniProt P20138 18-364)
Chain of human CD33 R122I (P20138 18-364 R122I limits assumed): as the sequence (P20138 18-364 F44P limits assumed) above, with P27F, R105I counted along it

human CD33 R122S = human CD33 R122S (human, UniProt P20138 18-364)
Chain of human CD33 R122S (P20138 18-364 R122S limits assumed): as the sequence (P20138 18-364 F44P limits assumed) above, with P27F, R105S counted along it

human CD33 K52D = human CD33 K52D (human, UniProt P20138 18-364)
Chain of human CD33 K52D (P20138 18-364 K52D limits assumed): as the sequence (P20138 18-364 F44P limits assumed) above, with P27F, K35D counted along it

human CD33 F44L = human CD33 F44L (human, UniProt P20138 18-364)
Chain of human CD33 F44L (P20138 18-364 F44L limits assumed): as the sequence (P20138 18-364 F44P limits assumed) above, with P27L counted along it

human CD33 I47S = human CD33 I47S (human, UniProt P20138 18-364)
Chain of human CD33 I47S (P20138 18-364 I47S limits assumed): as the sequence (P20138 18-364 F44P limits assumed) above, with P27F, I30S counted along it

human CD33 F44E = human CD33 F44E (human, UniProt P20138 18-364)
Chain of human CD33 F44E (P20138 18-364 F44E limits assumed): as the sequence (P20138 18-364 F44P limits assumed) above, with P27E counted along it

human CD33 I47P = human CD33 I47P (human, UniProt P20138 18-364)
Chain of human CD33 I47P (P20138 18-364 I47P limits assumed): as the sequence (P20138 18-364 F44P limits assumed) above, with P27F, I30P counted along it

human CD33 I47G = human CD33 I47G (human, UniProt P20138 18-364)
Chain of human CD33 I47G (P20138 18-364 I47G limits assumed): as the sequence (P20138 18-364 F44P limits assumed) above, with P27F, I30G counted along it

human CD33 I47T = human CD33 I47T (human, UniProt P20138 18-364)
Chain of human CD33 I47T (P20138 18-364 I47T limits assumed): as the sequence (P20138 18-364 F44P limits assumed) above, with P27F, I30T counted along it

human CD33 I47F = human CD33 I47F (human, UniProt P20138 18-364)
Chain of human CD33 I47F (P20138 18-364 I47F limits assumed): as the sequence (P20138 18-364 F44P limits assumed) above, with P27F, I30F counted along it

Chain of human CD33 R122E (P20138 18-364 R122E limits assumed): as the sequence (P20138 18-364 F44P limits assumed) above, with P27F, R105E counted along it
Chain of human CD33 D51K (P20138 18-364 D51K limits assumed): as the sequence (P20138 18-364 F44P limits assumed) above, with P27F, D34K counted along it
Chain of human CD33 R122T (P20138 18-364 R122T limits assumed): as the sequence (P20138 18-364 F44P limits assumed) above, with P27F, R105T counted along it
Chain of human CD33 Y49D (P20138 18-364 Y49D limits assumed): as the sequence (P20138 18-364 F44P limits assumed) above, with P27F, Y32D counted along it
Chain of human CD33 I47N (P20138 18-364 I47N limits assumed): as the sequence (P20138 18-364 F44P limits assumed) above, with P27F, I30N counted along it

binding result (human CD33 R122T): no binding (tested: below 20%)
binding result (human CD33 R122E): no binding (tested: below 20%)
binding result (human CD33 Y49D): no binding (tested: below 20%)
binding result (human CD33 I47N): no binding (tested: below 20%)
binding result (human CD33 D51K): no binding (tested: below 20%)
binding result (human CD33 F44P): no binding (tested: below 20%)
binding result (human CD33 I47R): no binding (tested: below 20%)
binding result (human CD33 I47E): no binding (tested: below 20%)
binding result (human CD33 F44S): no binding (tested: below 20%)
binding result (human CD33 I47L): no binding (tested: below 20%)
binding result (human CD33 Y49G): no binding (tested: below 20%)
binding result (human CD33 Y49P): no binding (tested: below 20%)
binding result (human CD33 I47Q): no binding (tested: below 20%)
binding result (human CD33 F44Q): no binding (tested: below 20%)
binding result (human CD33 F44V): no binding (tested: below 20%)
binding result (human CD33 F44T): no binding (tested: below 20%)
binding result (human CD33 R122F): no binding (tested: below 20%)
binding result (human CD33 I47Y): no binding (tested: below 20%)
binding result (human CD33 F44H): no binding (tested: below 20%)
binding result (human CD33 Y49C): no binding (tested: below 20%)
binding result (human CD33 F44D): no binding (tested: below 20%)
binding result (human CD33 F44I): no binding (tested: below 20%)
binding result (human CD33 I47W): no binding (tested: below 20%)
binding result (human CD33 R122I): no binding (tested: below 20%)
binding result (human CD33 R122S): no binding (tested: below 20%)
binding result (human CD33 K52D): no binding (tested: below 20%)
binding result (human CD33 F44L): no binding (tested: below 20%)
binding result (human CD33 I47S): no binding (tested: below 20%)
binding result (human CD33 F44E): no binding (tested: below 20%)
binding result (human CD33 I47P): no binding (tested: below 20%)
binding result (human CD33 I47G): no binding (tested: below 20%)
binding result (human CD33 I47T): no binding (tested: below 20%)
binding result (human CD33 I47F): no binding (tested: below 20%)
B1: Refmab #2 (antibody, human IgG1, V domains shown)
VH: QVQLVQSGAEVKKPGSSVKVSCKASGGTFSDYAISWVRQAPGQGLEWMGRIIPILGVADYAQKFQGRVTITADKSTRTAYMELSSLRSEDTAVYYCARNWADAFDIWGQGTMVTVSS
VL: DIQLTQSPSSLSASVGDRVTITCRASQGISSVLAWYQQKPGKAPKLLIYDASSLESGVPSRFSGSGSGTDFTLTISSLQPEDFATYYCQQFDSSITFGQGTKLEIK
